{
  "source": "patent US8841421B2",
  "about": "“S100A9 interaction screening method” (Active Biotech, AB, priority 2007, dated 2014)",
  "molecules": {"B1": {"name": "S100P: S100 protein, putative RAGE ligand (protein, UniProt P25815 1-95, looked up)", "Protein S100-P": "MTELETAMGMIIDVFSRYSGSEGSTQTLTKGELKVLMEKELPGFLQSGKDKDAVDKLLKDLDANGDAQVDFSEFIVFVAAITSACHKYFEKAGLK"}, "B2": {"name": "S100A12: S100 protein, putative RAGE ligand; purified from human granulocytes (protein)", "chain": "TKLEEHLEGIVNIFHQYSVRKGHFDTLSKGELKQLLTKELANTIKNIKDKAVIDEIFQGLDANQDEQVDFQEFISLVAIALKAAHYHTHKE"}},
  "key": {"[1]": {"target": "T1, S100A9 binding to immobilized RAGE (Homo sapiens, UniProt P06702)", "T1 construct": "made in house; host or cells: E. coli", "T1 sequence (P06702 1-114)": "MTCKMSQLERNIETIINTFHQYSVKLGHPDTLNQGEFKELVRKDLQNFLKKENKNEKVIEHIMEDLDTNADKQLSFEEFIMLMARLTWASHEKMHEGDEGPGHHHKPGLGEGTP", "assay": "Biacore competition assay: displacement of S100A9 binding to immobilized RAGE", "conditions": "for IC50, displacement of S100A9 binding to RAGE: 200 nM S100A9, log-logit plot, linear regression", "procedure": "Sensorgrams from top to bottom represent: S100A9 without and with 15.625, 31.25, 62.5, 125, 250, 500 and 1000 μM compound A as competitor and from sample buffer without S100A9 and competitor. In (B), binding data is plotted as an inhibition curve (♦) and the response for S100A9 in the absence of competitor (dotted line). In (C), binding data is plotted after log-logit transformation. […] Arrows in (A) indicate start of the association phase (1), i.e. injection of S100A9±competitor, and dissociation phase (2), where running buffer is pumped over the surface. Injection time, flow rate and regeneration conditions were as in FIG. 1.\nBinding analysis was performed using the “surface plasmon resonance” (SPR) technology with a Biacore 3000™ system. This technology allows analysis of an interaction between proteins and small molecules in a real-time and label-free manner. A protein or low-molecular weight compound is injected over a surface (a CM5 sensor chip) with a covalently coupled ligand and the signal produced, expressed as resonance units (RU), is directly proportional to the number and mass of the molecule interacting with the ligand on the surface. Immobilization, regeneration scouting, surface performance tests and binding studies were conducted basically according to the instructions by the manufacturer. Kinetic evaluation of binding data was carried using the BIAevaluation Software Version 3.2 (Biacore AB). Optimization of conditions for immobilization and binding analysis is carried out for each interaction to be studied. […]\nRecombinant human RAGE was obtained from R&D Systems (cat. No. 1145-RG) as a fusion protein of the extracellular domain of RAGE, comprising a.a. […] The chimeric protein was expressed in the mouse myleoma cell line NSO as a disulfide-linked homo-dimeric protein with a calculated molecular mass of 61 kDa. […]\nRecombinant S100A9, expressed as the full-length sequence of native protein in E. coli was obtained using a four-step purification protocol. […]"}, "[2]": {"target": "T2, human TLR4/MD-2 (Homo sapiens, UniProt O00206+Q9Y6Y9)", "T2 construct": "human TLR4 (Glu 24-Lys 631), and 10× histidines; human MD-2 (Glu 17-ASN 160), and 10× histidines; human CD33 signal peptide (Met 1-Ala 16) (N); purchased R&D Systems 3146-TN/CF; host or cells: mouse myeloma cell line NS0", "T2 sequence (O00206 24-631)": "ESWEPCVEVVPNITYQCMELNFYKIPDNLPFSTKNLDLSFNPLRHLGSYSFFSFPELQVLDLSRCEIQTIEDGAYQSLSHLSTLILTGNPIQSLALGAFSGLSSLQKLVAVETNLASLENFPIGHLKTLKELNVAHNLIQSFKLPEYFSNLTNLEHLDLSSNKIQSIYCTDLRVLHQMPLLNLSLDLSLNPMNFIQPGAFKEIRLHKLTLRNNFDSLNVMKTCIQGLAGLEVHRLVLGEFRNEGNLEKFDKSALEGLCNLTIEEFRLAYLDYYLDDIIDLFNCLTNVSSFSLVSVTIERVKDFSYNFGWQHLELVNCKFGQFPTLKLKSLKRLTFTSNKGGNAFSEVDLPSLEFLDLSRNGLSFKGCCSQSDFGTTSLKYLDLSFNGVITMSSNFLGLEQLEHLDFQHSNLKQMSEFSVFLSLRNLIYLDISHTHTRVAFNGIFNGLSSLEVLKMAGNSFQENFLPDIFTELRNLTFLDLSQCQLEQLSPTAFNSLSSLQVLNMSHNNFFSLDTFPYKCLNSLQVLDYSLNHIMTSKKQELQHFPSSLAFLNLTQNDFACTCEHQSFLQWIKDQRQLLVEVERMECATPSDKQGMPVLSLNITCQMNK", "T2 sequence (Q9Y6Y9 17-160)": "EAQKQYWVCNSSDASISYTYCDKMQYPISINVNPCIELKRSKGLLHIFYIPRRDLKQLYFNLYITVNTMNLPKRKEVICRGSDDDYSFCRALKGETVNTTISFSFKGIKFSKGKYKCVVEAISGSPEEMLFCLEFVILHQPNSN", "assay": "Biacore direct binding of S100A9 to amine-coupled TLR4/MD-2", "conditions": "1:1 Langmuir binding model", "procedure": "The TOLL-like receptor 4 was immobilized on the sensor chip. Binding to S100A9 was detected. […] Sensorgrams from bottom to top represent injection of sample buffer in the absence of S100A9, 100 and 200 nM S100A9 after subtraction of the signal in the reference flow cell. Injection time was 3 min at a flow rate of 30 μL/min and regeneration was performed with a 30 μl pulse of 3 mM EDTA in HBS-P buffer (HBS-EP) for 60 s. Arrows indicate injection of sample (1; association phase), running buffer (2; dissociation phase) and regeneration solution (3). HBS-P containing 1 mM CaCl2 and 10 μM ZnCl2 (Robinson et al. 2002) was used as running and sample buffer. An apparent dissociation constant of […], on- and off-rates of 3.9×10^4 l/Ms and 3.5×10^−4 l/s, and maximal binding at 1.8×10^3 RU were calculated after fitting data to a 1:1 Langmuir binding model (Chi2 6.8).\n(§1) Binding analysis was performed using the “surface plasmon resonance” (SPR) technology with a Biacore 3000™ system. This technology allows analysis of an interaction between proteins and small molecules in a real-time and label-free manner. A protein or low-molecular weight compound is injected over a surface (a CM5 sensor chip) with a covalently coupled ligand and the signal produced, expressed as resonance units (RU), is directly proportional to the number and mass of the molecule interacting with the ligand on the surface. Immobilization, regeneration scouting, surface performance tests and binding studies were conducted basically according to the instructions by the manufacturer. Kinetic evaluation of binding data was carried using the BIAevaluation Software Version 3.2 (Biacore AB). Optimization of conditions for immobilization and binding analysis is carried out for each interaction to be studied. A biosensor analysis cycle consists of: (i) injection of S100A9 over the RAGE surface for 3 min (association phase) or (i) injection of S100A9 over the TLR4/MD-2 surfaces, in the absence or presence of 100 ng/mL LPS, for 3 min (association phase); (ii) injection of running buffer for 2.5 min (dissociation phase); (iii) injection of a 30 s pulse of 10 mM glycine-HCl, pH 2.0-2.125 (regeneration phase); and (iv) injection of running buffer for 2 min (stabilization after regeneration) at a flow rate of 30 μl/min.\nRecombinant human TLR4/MD-2 was obtained from R&D Systems (cat. no. 3146-TN/CF) as a non-covalently associated protein of the respective extracellular domains. […]\n(§2) Recombinant S100A9, expressed as the full-length sequence of native protein in E. coli was obtained using a four-step purification protocol. […] Buffer was changed to HBS-P using the Fast Protein Desalting Spin Columns and concentration determined in the BCA protein assay from Pierce with bovine albumin as standard. […]"}, "[3]": {"target": "T3, immobilized RAGE (Homo sapiens, UniProt Q15109)", "T3 construct": "the extracellular domain of RAGE, comprising a.a; 1-344; purchased R&D Systems 1145-RG; host or cells: mouse myeloma cell line NS0", "T3 sequence (Q15109 23-344)": "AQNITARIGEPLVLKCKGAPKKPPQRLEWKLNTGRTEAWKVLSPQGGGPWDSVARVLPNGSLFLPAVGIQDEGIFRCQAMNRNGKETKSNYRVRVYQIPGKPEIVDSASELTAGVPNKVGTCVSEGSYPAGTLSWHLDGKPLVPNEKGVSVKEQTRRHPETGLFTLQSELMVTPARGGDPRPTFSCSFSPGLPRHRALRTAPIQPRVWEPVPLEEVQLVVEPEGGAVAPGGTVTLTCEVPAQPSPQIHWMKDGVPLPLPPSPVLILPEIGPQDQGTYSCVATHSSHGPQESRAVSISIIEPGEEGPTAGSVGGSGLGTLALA", "assay": "Binding of S100 proteins to immobilized RAGE (Biacore)", "conditions": "200 nM protein", "procedure": "Responses were obtained as Req values after fit of data to a 1:1 binding model or as the signal at late association phase (t˜235 s). Experimental conditions were as in FIG. 1. Signals were not corrected for mass contribution.\nIn vivo, S100A9 usually forms hetero-dimeric complexes with S100A8.\nas §1\nRecombinant human RAGE was obtained from R&D Systems (cat. No. 1145-RG) as a fusion protein of the extracellular domain of RAGE, comprising a.a. 1-344, and the Fc region of human IgG1 via a peptide linker. The chimeric protein was expressed in the mouse myleoma cell line NSO as a disulfide-linked homo-dimeric protein with a calculated molecular mass of 61 kDa. Prior to covalent coupling to the sensor chip, buffer was changed to a standard Biacore buffer (10 mM Hepes, 0.15 M NaCl, pH 7.4, containing 0.005% v/v Surfactant P20; HBS-P) using Fast Protein Desalting Micro-Spin Columns (Pierce). RAGE was diluted in an immobilization buffer shown to give sufficient pre-concentration and then covalently coupled using the “Aim at immobilization level” function in the Biacore Wizard to obtain various coupling densities. Activity of immobilized RAGE was tested by injecting a specific anti-human RAGE monoclonal antibody over the surface. Due to extensive glycosylation of RAGE relative to that of the Fc domain and a higher mass of the latter, it was also assumed that chimeric RAGE/Fc will be coupled predominantly via the Fc domain and result in a semi-oriented coupling to the sensor chip. HBS-P, with a final concentration of 1 mM CaCl2 and 10 μM ZnCl2, was used as sample and running buffer throughout the study. For regeneration of the surface after each cycle, a pulse of 10 mM glycine-HCl, pH 2.125, was used. To determine optimal zinc concentration for binding of S100A9 protein to RAGE, the interaction was allowed to take place at a fixed calcium concentration (1 mM) and with the zinc concentration titrated from zero to ten μM."}, "[4]": {"target": "T4, S100A9 binding to immobilized human TLR4/MD-2 complex (Homo sapiens, UniProt P06702)", "T4 construct": "made in house; host or cells: E. coli", "T4 sequence (P06702 1-114)": "T1 sequence (P06702 1-114)", "assay": "Biacore competition assay: displacement of S100A9 binding to immobilized TLR4/MD-2", "conditions": "sigmoidal dose-response (variable slope) fit", "procedure": "Sensograms from top to bottom represent: S100A9 without and with 7.8125, 15.625, 31.25, 62.5, 125, 250, 500 and 1000 μM compound A as competitor. In (B), binding data is plotted as an inhibition curve. […] Arrows in (A) indicate start of the association phase (1), i.e. injection of S100A9±competitor, and dissociation phase (2), where running buffer is pumped over the surface. Injection time, flow rate and regeneration conditions were as in FIG. 1. HBS-P containing 1 mM CaCl2 and 10 μM ZnCl2 (Robinson et al. 2002) was used as running and sample buffer.\nBinding analysis was performed using the “surface plasmon resonance” (SPR) technology with a Biacore 3000™ system. This technology allows analysis of an interaction between proteins and small molecules in a real-time and label-free manner. A protein or low-molecular weight compound is injected over a surface (a CM5 sensor chip) with a covalently coupled ligand and the signal produced, expressed as resonance units (RU), is directly proportional to the number and mass of the molecule interacting with the ligand on the surface. […]\nas §2"}, "[5]": {"target": "T5, human S100A9 (Homo sapiens, UniProt P06702)", "T5 construct": "made in house; host or cells: E. coli", "T5 sequence (P06702 1-114)": "T1 sequence (P06702 1-114)", "assay": "Biacore competition assay: S100A9 binding to immobilized amino-linked Compound A", "conditions": "sigmoidal dose-response (variable slope) fit", "procedure": "The anti-S100A9 mAb 43/8 ability to block the binding of human S100A9 to amino-linked Compound A was measured by BIACORE™ direct binding assay. The assay was performed by coating amino-linked Compound A on a CM5 chip using standard amine coupling. S100A9 at 100 nM was injected over immobilized Compound A in the absence or presence of mAb 43/8 for 3 min at a flow rate of 30 μl/min in sample buffer (HBS-P buffer containing 1 mM Ca^2+ and […]) (1; association phase), followed by injection of sample buffer (2; dissociation phase).\nResponses at late association phase, obtained after injection of 100 nM S100A9, pre-incubated for at least 1 h at room temperature ±12.5-500 nM monoclonal anti-S100A9 antibody, over immobilized Compound A were plotted versus concentration of anti-S100A9 antibody.\nSamples were injected for 3 min at 30 μl/min in HBS-P buffer over amine coupled RAGE,TLR4/MD-2 and Compound A. Binding +/− competitor was calculated as response at lateassociation phase or by fit of sensorgrams to a 1:1 Langmuir model. ICso values were calculated by fitting data to a sigmoidal dose-response (variable slope) model in Graph-Pad Prism."}},
  "data": [
    {"molecule": "heparin", "values": [
      {"measurement": "IC50, displacement of S100A9 binding to RAGE", "setting": "[1]", "result": 0.0404, "unit": "µg/mL"}
    ]},
    {"molecule": "S100A9: recombinant S100A9, full-length sequence of native protein expressed in E. coli; SEQ ID NO: 1 [Compound S100A9]", "values": [
      {"measurement": "maximal binding", "setting": "[2]", "result": "1.8×10^3 RU"},
      {"measurement": "off-rate", "setting": "[2]", "result": 0.00035, "unit": "L/s"},
      {"measurement": "on-rate", "setting": "[2]", "result": "3.9×10^4 l/Ms"},
      {"measurement": "Kd", "setting": "[2]; read-out: apparent dissociation constant", "result": 0.086, "unit": "µM"},
      {"measurement": "binding to RAGE relative to next group of RAGE binders (AnxII, S100A12, S100A8/9)", "setting": "[3]", "result": "more than 10 fold"}
    ]},
    {"molecule": "heparan sulfate", "values": [
      {"measurement": "IC50, displacement of S100A9 binding to RAGE", "setting": "[1]", "result": 0.0257, "unit": "µg/mL"}
    ]},
    {"molecule": "S100B: S100 protein, putative RAGE ligand [Compound S100B]", "values": [
      {"measurement": "binding to RAGE (in words)", "setting": "[3]", "result": "weak or no binding"}
    ]},
    {"molecule": "S100A1: S100 protein, putative RAGE ligand [Compound S100A1]", "values": [
      {"measurement": "binding to RAGE (in words)", "setting": "[3]", "result": "weak or no binding"}
    ]},
    {"molecule": "S100A8/9 hetero-dimer: hetero-dimeric complex of S100A8 and S100A9", "values": [
      {"measurement": "binding to RAGE (in words)", "setting": "[3]", "result": "significantly lower binding"}
    ]},
    {"molecule": "COc1ccc(C2CNC(=O)C2)cc1OC1CCCC1", "note": "(racemic) [Rolipram, (+/−)-4-(3-cyclopentyloxy-4-methoxyphenyl)-2-pyrrolidone]", "values": [
      {"measurement": "IC50", "setting": "[1]; sigmoidal dose-response (variable slope) fit", "result": 399, "unit": "µM"},
      {"measurement": "IC50", "setting": "[4]", "result": 458, "unit": "µM"},
      {"measurement": "IC50", "setting": "[5]", "result": 873, "unit": "µM"}
    ]},
    {"molecule": "B1", "values": [
      {"measurement": "binding to RAGE (in words)", "setting": "[3]", "result": "weak or no binding"}
    ]},
    {"molecule": "B2", "values": [
      {"measurement": "binding to RAGE (in words)", "setting": "[3]", "result": "weak or no binding"}
    ]}
  ]
}
